The values that follow are results of earlier work, collected in article PMC11426987.

Read-outs that look alike come from different tables or passages of the source.

Data set [1] has as its target protein S (Homo sapiens) (UniProt P07225).
Data set [2] shares this target. This is another data set of the same source.

Sequence of UniProt P07225 (P07225 42-676): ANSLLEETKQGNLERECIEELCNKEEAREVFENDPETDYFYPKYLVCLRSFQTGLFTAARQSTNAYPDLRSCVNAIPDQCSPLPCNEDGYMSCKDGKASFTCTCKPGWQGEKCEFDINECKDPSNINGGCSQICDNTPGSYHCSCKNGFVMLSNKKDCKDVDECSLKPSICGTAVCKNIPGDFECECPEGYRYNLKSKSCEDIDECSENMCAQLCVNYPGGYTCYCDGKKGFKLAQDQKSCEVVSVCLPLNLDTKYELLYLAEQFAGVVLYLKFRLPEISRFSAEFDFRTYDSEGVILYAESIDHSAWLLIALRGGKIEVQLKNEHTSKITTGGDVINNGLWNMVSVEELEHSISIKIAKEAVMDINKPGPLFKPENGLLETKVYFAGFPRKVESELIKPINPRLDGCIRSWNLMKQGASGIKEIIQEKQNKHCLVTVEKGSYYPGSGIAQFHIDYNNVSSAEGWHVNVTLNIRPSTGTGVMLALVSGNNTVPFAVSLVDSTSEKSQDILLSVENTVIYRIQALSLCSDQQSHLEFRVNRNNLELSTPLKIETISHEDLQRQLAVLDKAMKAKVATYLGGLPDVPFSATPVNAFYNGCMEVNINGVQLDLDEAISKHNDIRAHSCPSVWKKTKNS

As to TFPIα (from UniProt P10646), in the data set with protein S (Homo sapiens) [1], the Kd is 0.02 µM.

In the case of TFPI (from UniProt P10646), the Kd in the data set with protein S (Homo sapiens) [2] was greater than 1 µM.

Broadly, the Kd is a measure of binding affinity in units of concentration.
